Results reported in patent publication US20250282887A1 (Amgen, published 2025).
Changes are numbered by the printed parent chain.

T1: Human MAGEB2 (Melanoma-associated antigen B2) (human, UniProt O15479 1-319)
T1 construct: Intracellular antigen detected by IHC in FFPE material: CHO cells transfected with human MAGEB2 (mCherry vector with Myc/DDK tags, or ORF without tags)
T1 sequence: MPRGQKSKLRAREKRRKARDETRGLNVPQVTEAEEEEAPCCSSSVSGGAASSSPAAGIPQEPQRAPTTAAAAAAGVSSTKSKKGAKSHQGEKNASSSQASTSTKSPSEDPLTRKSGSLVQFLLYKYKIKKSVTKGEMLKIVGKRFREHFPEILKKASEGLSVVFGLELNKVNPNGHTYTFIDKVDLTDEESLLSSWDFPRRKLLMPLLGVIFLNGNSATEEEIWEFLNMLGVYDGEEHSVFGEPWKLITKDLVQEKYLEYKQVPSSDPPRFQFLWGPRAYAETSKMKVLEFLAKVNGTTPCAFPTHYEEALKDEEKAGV

T2: human MAGEA5 (human, UniProt P43359 1-124)
T2 construct: whole, on cells; FFPE cell pellets
T2 sequence (looked up): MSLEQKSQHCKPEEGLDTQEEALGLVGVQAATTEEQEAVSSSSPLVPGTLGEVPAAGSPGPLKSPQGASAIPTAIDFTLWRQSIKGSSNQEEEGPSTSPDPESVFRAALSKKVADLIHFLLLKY

T3: human MAGEA9 (human, UniProt P43362 1-315)
T3 construct: whole, on cells; FFPE cell pellets
T3 sequence (looked up): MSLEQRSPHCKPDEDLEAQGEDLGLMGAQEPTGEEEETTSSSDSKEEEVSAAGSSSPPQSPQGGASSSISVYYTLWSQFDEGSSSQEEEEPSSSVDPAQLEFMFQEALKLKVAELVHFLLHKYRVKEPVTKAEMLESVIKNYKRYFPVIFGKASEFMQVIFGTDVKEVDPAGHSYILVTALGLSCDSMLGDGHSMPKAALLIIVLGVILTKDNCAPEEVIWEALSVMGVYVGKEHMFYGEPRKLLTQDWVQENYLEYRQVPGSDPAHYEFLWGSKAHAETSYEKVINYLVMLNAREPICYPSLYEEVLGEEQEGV

B1: 1C3 (antibody, V domains shown)
VH: QSLEESGGGLVQPEGSLTLTCTAFGVTLTNYYICWVRQAPGKGLEWVGCIDNANGRTYYASWAKGRFTISKTSSTTGTLQMTSLTAADTATYFCARSLATPLWGPGTLVTVSS
VL: DIVMTQTPSSVEAAVGGTVTIKCQASQNISSYLAWYQQKPGQPPKLLIYRASTLASGVPSRFKGSGSGTQFTLTISDLECADAATYYCQSYDDSRSSNFFYAFGGGTEVVVKG
notes: also called MAGE-B2 (IC3); anti-MAGEB2 antibody 1C3
B2: 4G17 (antibody, IgG1, V domains shown)
VH: B1 VH with F24S, T29S, V47I, A53V
VL: DIVMTQTPASVEAAVGGTVTIKCQASQNIDSYLAWYQQKPGQPPKLLIYRASTLASGVPSRFKGSGSGTEFTLTISDLECADAATYYCQSYDDSRSSSFFYGFGGGTEVVVK
notes: Rabbit monoclonal IgG1; Tested as supernatant and as small batch purified antibody; also called MAGE-B2 (4G17); anti-MAGEB2 antibody 4G17
B3: 1J15 (antibody, IgG1, V domains shown)
VH: B1 VH with V26F, T29N, V47I, G48A, G77V, A99S
VL: B2 VL with N28S, D30S, A34S, K63R, E70Q, R95S, S96D, S97N, S98N, K112R
notes: Rabbit monoclonal IgG1; Tested as supernatant and as small batch purified antibody; also called MAGE-B2 (IJ15); anti-MAGEB2 antibody 1J15
B4: 1I14 (antibody, V domains shown)
VH: QSVEESGGRLVTPGTPLTLTCTISGFSLSSYAMSWVRQAPGKGLEWIGSIGGGGSAVYASWAKGRFTISKTSTTVDLRITSPTTEDTAMYFCGRGFYSIDLWGPGTLVTVSS
VL: DVVMTQTPASVEATVGGTVTIKCQSSQSVYDNNALAWYQQNAGQRPRLLIYGASTLASGVPSRFSASGSGTEFTLTISDLECADAATYYCQCTYYVSSYQNDFGGGTEVVVKG
notes: also called MAGE-B2 (1i14)

What follows are binders tested against T1, Human MAGEB2 (Melanoma-associated …) (assay: IHC on FFPE NCI-H82 cells (endogenous MAGEB2)).
Protocol: (§1) FFPE samples were sectioned at 4 μm and mounted on positive charged glass slides. After mounting, paraffin sections were air-dried at room temperature. FFPE TMA samples were received as freshly sectioned and mounted on glass slides. The fully automated IHC assay was performed on a Discovery Ultra Stainer (Ventana Medical Systems, Tucson, AZ) using Ventana Anti-Rabbit HQ (cat #760-4815), Ventana Anti-HQ HRP (cat #760-4820), and Ventana Antibody Diluent with Casein (cat #760-219) (Ventana Medical Systems, Tucson, AZ). The slides were baked on the Discovery Ultra Stainer at 60° C. for 8 minutes, de-paraffinized with Ventana Discovery wash (cat #950-510) for 3 cycles (8 minutes each) at 69° C., and underwent cell conditioning (target retrieval) at 95° C. for 16 minutes (for cell arrays) or 32 minutes (tissues or TMAs) in CC1 buffer (cat #950-500). Following this, slides were incubated with Background Sniper (cat #BS966M, Biocare Medical, Pacheco, CA) in a Ventana Option Prep kit (cat #771-751) for 28 minutes, incubated with CM inhibitor (a part of the Ventana DAB kit cat #760-159) for 12 minutes, and incubated for 1 h at RT with MAGE-B2 antibody diluted with Ventana diluent with Casein in a Ventana Prep kit (cat #770-001) (working concentration at 0.1 μg/ml for cell pellet, or 1-5 ug/ml for tissues) or with a matched concentration of isotype control Rabbit IgG1 antibody. Following this, slides were incubated with the Ventana Anti-Rabbit HQ (cat #760-4815) for 28 minutes at RT, Ventana Anti-HQ HRP (cat #760-4820) for 28 minutes at RT, and signals detected with Ventana DAB chromogen kit (cat #760-159) for 5 minutes at RT. Slides were counterstained with Ventana Hematoxylin II (cat #5266726001) for 8 minutes and Ventana Bluing reagent (cat #526676900) for 4 minutes. Slides were coverslipped and digitized using an Aperio AT2 scanner (Leica Biosystems Inc, Buffalo Grove, IL).

| IHC % Frequency | IHC Intensity | Binder |
| --- | --- | --- |
| 0% | 1 | B1 |
| 0% | 0 | B2 |
| 0% | 0 | B3 |
| 0% | 0 | B4 |

These binders were tested against T2, human MAGEA5 (assay: IHC, FFPE CHO cells transfected with human MAGEA5).
Description: Negative control cells included parental Chinese hamster ovary (CHO) cells, CHO cells stably transfected with mCherry Vector Control (minus Myc/DDK tags), CHO cells stably transfected with mCherry-human DCAF4L2 (plus Myc/DDK tags). The cross-reactivity control cells included CHO cells transfected with mCherry Vector Control (plus Myc/DDK tags) with one of the human MAGE-B or MAGE-A family members (MAGEA1, MAGEA2, MAGEA3, MAGEA4, MAGEA5, MAGEA6, MAGEA8, MAGEA9, MAGEA11, MAGEA12, MAGEB1, MAGEB3, MAGEB4, MAGEB5, MAGEB6, MAGEB10, MAGEB16, MAGEB17, MAGEB18). Positive control cell lines included CHO cells transfected with mCherry Vector (plus Myc/DDK tags) with human MAGE-B2 or CHO cells transfected with mCherry Vector (open reading frame (ORF); minus Myc/DDK tags) with human MAGEB2, and thirteen human cancer cell lines with known endogenous RNA expression level of MAGEB2 (U266B1, T98G, KMM-1, U20S, CFPAC-1, SCaBER, UACC-257, CFPAC-1, VMRC-LCD, NCI-H1703, UM-UC-3, NCI-H1395, NCIH82).
as §1, with “antibody.” for “antibody. Following this, slides were incubated with the Ventana Anti-Rabbit HQ (cat #760-4815) for 28 minutes at RT, Ventana Anti-HQ HRP (cat #760-4820) for 28 minutes at RT, and signals detected with Ventana DAB chromogen kit (cat #760-159) for 5 minutes at RT. Slides were counterstained with Ventana Hematoxylin II (cat #5266726001) for 8 minutes and Ventana Bluing reagent (cat #526676900) for 4 minutes. Slides were coverslipped and digitized using an Aperio AT2 scanner (Leica Biosystems Inc, Buffalo Grove, IL).”

| binding result | Binder |
| --- | --- |
| no binding (tested: 0.1 µg/ml) | B1 |
| no binding (tested: 0.1 µg/ml) | B2 |
| no binding (tested: 0.1 µg/ml) | B3 |
| no binding (tested: 0.1 µg/ml) | B4 |

What follows are binders tested against T3, human MAGEA9 (assay: IHC, FFPE CHO cells transfected with human MAGEA9).
Protocol: as §1

| binding result | Binder |
| --- | --- |
| no binding (tested: 0.1 µg/ml) | B1 |
| no binding (tested: 0.1 µg/ml) | B2 |
| no binding (tested: 0.1 µg/ml) | B3 |
| no binding (tested: 0.1 µg/ml) | B4 |
